Test results published in article PMC9352680, “A comprehensive thermodynamic model for RNA binding by the Saccharomyces cerevisiae Pumilio protein PUF4”.
Where a chain is given by its changes, count along the chain named. Names and notes keep the numbering of the source.

B1: Ic_S2_P3E.1_K3.1_C3.1_H3.1_A3.1_[T5G]_[A6C]_F3.1_[T7C]_[A8T]_T3.1 (ssRNA)
RNA: UUUGAUUAAUAUGAUAUCGUUCUUUCUUGUAGCCUUUCUUUCUCGAUAUCAUAUUAAUCUUU
B2: Ic_S2_P3E.1_K3.1_C3.1_H3.1_A3.1_[T5G]_[A6C]_F3.1_[T7A]_[A8G]_T3.1 (ssRNA)
RNA: B1 RNA with C34A, U35G
B3: Ic_S2_P3E.1_K3.1_C3.1_H3.1_A3.1_[T5G]_[A6C]_F3.1_[T7A]_T3.1 (ssRNA)
RNA: B1 RNA with C34A, U35A
B4: Ic_S2_P3E.1_K3.1_C3.1_H3.1_A3.1_[T5G]_[A6C]_F3.1_[A8G]_T3.1 (ssRNA)
RNA: B1 RNA with C34U, U35G
B5: Ic_S2_P3E.1_K3.1_C3.1_H3.1_A3.1_[T5G]_[A6C]_F3.1_[A8C]_T3.1 (ssRNA)
RNA: B1 RNA with C34U, U35C
B6: Ic_S2_P3E.1_K3.1_C3.1_H3.1_A3.1_[T5G]_[A6C]_F3.1_[A8T]_T3.1 (ssRNA)
RNA: B1 RNA with C34U
B7: Ic_S2_P3E.1_K3.1_C3.1_H3.1_A3.1_[T5G]_[A6T]_F3.1_[T7G]_[A8C]_T3.1 (ssRNA)
RNA: B1 RNA with C33U, C34G, U35C
B8: Ic_S2_P3E.1_K3.1_C3.1_H3.1_A3.1_[T5G]_[A6T]_F3.1_[T7G]_[A8T]_T3.1 (ssRNA)
RNA: B1 RNA with C33U, C34G
B9: Ic_S2_P3E.1_K3.1_C3.1_H3.1_A3.1_[T5G]_[A6T]_F3.1_[T7C]_[A8G]_T3.1 (ssRNA)
RNA: B1 RNA with C33U, U35G
B10: Ic_S2_P3E.1_K3.1_C3.1_H3.1_A3.1_[T5G]_[A6T]_F3.1_[T7C]_[A8T]_T3.1 (ssRNA)
RNA: B1 RNA with C33U
B11: Ic_S2_P3E.1_K3.1_C3.1_H3.1_A3.1_[T5G]_[A6T]_F3.1_[T7C]_T3.1 (ssRNA)
RNA: B1 RNA with C33U, U35A
B12: Ic_S2_P3E.1_K3.1_C3.1_H3.1_A3.1_[T5G]_[A6T]_F3.1_[T7A]_[A8T]_T3.1 (ssRNA)
RNA: B1 RNA with C33U, C34A
B13: Ic_S2_P3E.1_K3.1_C3.1_H3.1_A3.1_[T5G]_[A6T]_F3.1_[T7A]_T3.1 (ssRNA)
RNA: B1 RNA with C33U, C34A, U35A
B14: Ic_S2_P3E.1_K3.1_C3.1_H3.1_A3.1_[T5G]_[A6T]_F3.1_[A8C]_T3.1 (ssRNA)
RNA: B1 RNA with C33U, C34U, U35C
B15: Ic_S2_P3E.1_K3.1_C3.1_H3.1_A3.1_[T5G]_[A6T]_F3.1_[A8T]_T3.1 (ssRNA)
RNA: B1 RNA with C33U, C34U
B16: Ic_S2_P3E.1_K3.1_C3.1_H3.1_A3.1_[T5C]_[A6G]_F3.1_[T7G]_[A8C]_T3.1 (ssRNA)
RNA: B1 RNA with G32C, C33G, C34G, U35C
B17: Ic_S2_P3E.1_K3.1_C3.1_H3.1_A3.1_[T5C]_[A6G]_F3.1_[T7C]_[A8C]_T3.1 (ssRNA)
RNA: B1 RNA with G32C, C33G, U35C
B18: Ic_S2_P3E.1_K3.1_C3.1_H3.1_A3.1_[T5C]_[A6G]_F3.1_[A8T]_T3.1 (ssRNA)
RNA: B1 RNA with G32C, C33G, C34U
B19: Ic_S2_P3E.1_K3.1_C3.1_H3.1_A3.1_[T5C]_[A6C]_F3.1_[T7G]_[A8T]_T3.1 (ssRNA)
RNA: B1 RNA with G32C, C34G
B20: Ic_S2_P3E.1_K3.1_C3.1_H3.1_A3.1_[T5C]_[A6C]_F3.1_[T7C]_[A8G]_T3.1 (ssRNA)
RNA: B1 RNA with G32C, U35G
B21: Ic_S2_P3E.1_K3.1_C3.1_H3.1_A3.1_[T5C]_[A6C]_F3.1_[T7C]_[A8T]_T3.1 (ssRNA)
RNA: B1 RNA with G32C
B22: Ic_S2_P3E.1_K3.1_C3.1_H3.1_A3.1_[T5C]_[A6C]_F3.1_[T7A]_[A8C]_T3.1 (ssRNA)
RNA: B1 RNA with G32C, C34A, U35C
B23: Ic_S2_P3E.1_K3.1_C3.1_H3.1_A3.1_[T5C]_[A6C]_F3.1_[T7A]_[A8T]_T3.1 (ssRNA)
RNA: B1 RNA with G32C, C34A
B24: Ic_S2_P3E.1_K3.1_C3.1_H3.1_A3.1_[T5C]_[A6C]_F3.1_[T7A]_T3.1 (ssRNA)
RNA: B1 RNA with G32C, C34A, U35A
B25: Ic_S2_P3E.1_K3.1_C3.1_H3.1_A3.1_[T5C]_[A6C]_F3.1_[A8G]_T3.1 (ssRNA)
RNA: B1 RNA with G32C, C34U, U35G
B26: Ic_S2_P3E.1_K3.1_C3.1_H3.1_A3.1_[T5C]_[A6C]_F3.1_[A8T]_T3.1 (ssRNA)
RNA: B1 RNA with G32C, C34U

Biological target: T1, PUF4 RNA-binding domain (Saccharomyces cerevisiae, UniProt P25339 537-888)
T1 sequence: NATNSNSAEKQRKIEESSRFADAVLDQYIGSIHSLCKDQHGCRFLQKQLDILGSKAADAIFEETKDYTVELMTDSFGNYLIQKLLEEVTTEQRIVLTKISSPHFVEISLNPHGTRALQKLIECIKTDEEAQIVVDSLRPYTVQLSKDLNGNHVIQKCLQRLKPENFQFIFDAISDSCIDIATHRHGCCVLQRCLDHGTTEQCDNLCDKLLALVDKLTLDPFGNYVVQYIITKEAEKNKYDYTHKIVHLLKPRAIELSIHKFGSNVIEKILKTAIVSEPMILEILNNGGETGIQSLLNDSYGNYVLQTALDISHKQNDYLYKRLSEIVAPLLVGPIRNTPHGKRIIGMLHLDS
Assay: Mg; RNA-MaP; 20 mM Na-HEPES pH 7.4, 30 mM KOAc, 0.75 mM MgCl2, 0.1% Tween-20, 5% glycerol, 0.1 mg/mL BSA, 2 mM DTT; 25 C; 0.0125-409.6 nM protein
Details: tags: N-His6-TEV cleaved; C-SNAP kept, Cy3B-labelled; label: tethered on chip by stalled RNA polymerase

Binder | Kd [nM]
B1 | 63.9
B2 | 754
B3 | 506
B4 | 156
UCUCUUUCUAAAUAUCUCUU (ssRNA) [Ib_S1_P3E.1_K3.1_C3.1_H3.1_[G2C]_A3.1_[T5A]_F3.1_T3.1] | > 2300
B5 | 181
B6 | 18.6
B7 | 390
B8 | 105
B9 | 436
B10 | 70.3
B11 | 751
B12 | 27.7
B13 | 650
B14 | 191
UCUCUUUAUACAUAUCUCUU (ssRNA) [Ib_S1_P3E.1_K3.1_C3.1_H3.1_[G2A]_A3.1_[T5C]_F3.1_T3.1] | 900
B15 | 23.2
B16 | 536
B17 | 126
B18 | 14.5
B19 | 55.6
B20 | 259
B21 | 12.6
B22 | 81.3
B23 | 3.72
B24 | 30.1
UCUCUUUCUAUUUAUCUCUU (ssRNA) [Ib_S1_P3E.1_K3.1_C3.1_H3.1_[G2C]_A3.1_[A6T]_F3.1_T3.1] | > 2300
B25 | 17.7
B26 | 7.54
